Biological target: Adhesion G Protein-coupled Receptor E2 (ADGRE2), overexpressed on murine lymphoma EL4 cells (human) (UniProt Q9UHX3)
Test: flow cytometry, scFv titrated on EL4 cells overexpressing ADGRE2

UniProt Q9UHX3, sequence (Q9UHX3 24-823): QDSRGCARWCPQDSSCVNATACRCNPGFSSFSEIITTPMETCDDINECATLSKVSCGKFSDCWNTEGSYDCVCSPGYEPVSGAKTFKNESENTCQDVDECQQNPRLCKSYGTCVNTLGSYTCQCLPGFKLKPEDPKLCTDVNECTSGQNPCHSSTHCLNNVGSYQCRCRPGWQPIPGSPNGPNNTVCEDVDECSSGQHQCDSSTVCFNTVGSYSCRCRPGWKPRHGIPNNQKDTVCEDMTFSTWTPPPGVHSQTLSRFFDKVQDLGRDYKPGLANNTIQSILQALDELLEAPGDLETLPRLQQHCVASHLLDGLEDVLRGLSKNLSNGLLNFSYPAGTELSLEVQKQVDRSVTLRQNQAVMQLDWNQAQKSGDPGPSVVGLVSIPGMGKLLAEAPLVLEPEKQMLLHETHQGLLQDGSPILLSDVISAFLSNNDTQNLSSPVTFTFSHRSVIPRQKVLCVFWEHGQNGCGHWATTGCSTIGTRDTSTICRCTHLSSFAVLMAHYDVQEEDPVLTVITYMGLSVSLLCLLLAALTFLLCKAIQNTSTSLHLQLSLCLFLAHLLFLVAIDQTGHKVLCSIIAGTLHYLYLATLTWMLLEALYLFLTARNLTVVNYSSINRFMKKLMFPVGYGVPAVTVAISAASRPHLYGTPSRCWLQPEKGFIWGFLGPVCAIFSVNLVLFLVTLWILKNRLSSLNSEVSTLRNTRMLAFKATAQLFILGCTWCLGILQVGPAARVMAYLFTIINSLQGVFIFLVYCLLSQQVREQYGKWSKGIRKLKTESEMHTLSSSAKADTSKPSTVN

Row | EC50 [nM] | Binder
1 | 10.6 | anti-ADGRE2 scFv E (scFv, part only; not given: VH-VL linker, V domains shown, not shown: another chain or arm of the molecule; small tags and cut ends) VH: QVQLQQSGAEVKKPGASVKVSCKASGYTFTNYWMQWVRQAPGQGLEWIGAVYPGDGDTRHTQKFKGRVTMTADKSTSTVYMELSSLRSEDTAVYYCARGFTAYGMDYWGQGTLVTVSS VL: QIVLTQSPATLSLSPGERATLTCSASSSVSYMHWYQQKPGLSPKRWIYDTSKLASGVPDRFSGSGSGTDYTFTIRRLEPEDFATYYCQQWSSNPLTFGQGTKVEIK
2 | 16.4 | anti-ADGRE2 scFv M (scFv, part only; not given: VH-VL linker, V domains shown, not shown: another chain or arm of the molecule; small tags and cut ends) VH: QVQLQQSGAEVKKPGASVKLSCKASGYTFTNYWMQWIRQAPGQGLEWIGAVYPGDGDTRYTQKFQGRATLTADTSTSTAYMEVSSLRSEDTAVYYCARGFTAYGMDYWGQGTTVTVSS VL: EIVLTQSPATLSASPGERVTMSCSASSSVSYMHWYQQKPGLAPRRWIYDTSKLASGVPDRFSGSGSGTDYTFTISRMEPEDFATYYCQQWSSNPLTFGGGTKLEIK

Reference: US20230018888A1
